# Measured values taken from the nanobody polyreactivity screen of Harvey et al. (2022).
# Assay: yeast display, Sf9 membrane polyspecificity reagent, FACS + sequencing; frameworks hold sequencing errors
# Summary of the method: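 After 36–48 hours of galactose induction, yeast (Saccharomyces cerevisiae BJ5465) displaying a synthetic nanobody library were stained at 4 °C for 1 hour with 10% biotinylated, detergent-solubilized Sf9 membrane reagent. Streptavidin microbeads enriched the stained cells before FACS sorting into low and high (top ~1%) gates on anti-HA and streptavidin fluorescence. Each clone's polyreactivity label reflects its gate of origin.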
row,Sequence,polyreactivity (PSR sort gate)
1,QVQLVESGGGLVQAGGSLRLSCAASGSTFTINVMGWYRQAPGKERELVAAINCGGRTNYADSVKGRFTISRDNAKNTVYLQMNSLKPEDTAVYNCAADGRSNVRQMDYWGQGTQVTVSS,low polyreactivity
2,QVQLVESGGGLVQAGGSLRLSCAASGSTFTKNAMGWYRQAPGKERELVADISFSGGSTYYADSVKGRFTISRDNAKNTVYLQTNRLKPEDTAVYDCAADRHRALPRFDDWGQGTQVTVAS,low polyreactivity
3,QVQLVESGGGLVQAGGSLRLSCAASGSTFTLNTMGWYRQAPGKERELVAGIRSGGSTYYADSVKGRFTISRDNAKNTVYLQMHSLKPEDTAVYYCAADRRWFAYWFDYWGQGTQVTVSS,low polyreactivity
4,QVQLVESGGGLVQAGGSLRLSCAASGSTFTLYAMGWYRQAPGKERELVAAISGIGDSTYYADSVKGRFTISRDNAKNTVYFQMNSLKPEDTAVYYCAADGEYRYVWEYESWGQGTQVTVSS,low polyreactivity
5,QVQLVESGGGLVQAGGSLRLSCAASGSTFTNYALGWYRQAPGKEREFVAAITFRGGRTYYADSVKGRFTISRDNAKNTVYLQMNSLKPEDTAVYYCNKRTSPKRFDYWGQGTQVTVSS,high polyreactivity
6,QVQLVESGGGLVQAGGSLRLSCAASGSTFTNYAMGWYRQAPGKERELVAAITSGGSTYYADSVKGRFTISRDNAKNTVYLQMNSLKPEDTAVYYCNAVYFSEYDSWGQGTQVTVSS,low polyreactivity
7,QVQLVESGGGLVQAGGSLRLSCAASGSTFTPNVMGWNRQAPGKEREYVAAINSSGGSTFYADSVKGRFTISRDTAKYTVYLQMNSLKPEDTAFYYCAASWHTPTFYDEYYYWGQGTQVTVSS,low polyreactivity
8,QVQLVESGGGLVQAGGSLRLSCAASGSTFTPYAMGWYRQAPGKDREFVAVITRSGTRTYYADSVKGRFTISRDNAKNTVYLQMNSLKPEDTAVSYCAADRHPYNRYDYYYWGQGTQVTVSS,high polyreactivity
9,QVQLVESGGGLVQAGGSLRLSCAASGSTFTQNTMGWYRQAPGKERELVAAISWSGTRTYYADSVKGRFTISRDNAKNTVYLQMNSLKPEDTAVYYCAARTHVPAEYDYWGQGTQVTVSS,high polyreactivity
10,QVQLVESGGGLVQAGGSLRLSCAASGSTFTQYAMGWYRQAPAKERELFAAISWGGGTTRYADSVKGRFTISRDNAKNTVYLQMNSLKPEDTAVYYCAKRVRTGSVGNFNYWGQGTQVTVSS,high polyreactivity
11,QVQLVESGGGLVQAGGSLRLSCAASGSTFTRNAMGWYRQAPGKERELVAAISGGGGGSTYYADSVKGRFTISRDNAKNTVYLQMNSLKPEDTAVYYCAARAGRYWAAYGYWGQGTQVTVSS,high polyreactivity
12,QVQLVESGGGLVQAGGSLRLSCAASGSTFTRYAMGWYRQAPGKERELVAAINWSGTSTYYADSVKGRFTISRDNAKNTVYLQMNSLKPEDTAVYYCNKGYLVRPGDYWGQGTQVTVSS,high polyreactivity
13,QVQLVESGGGLVQAGGSLRLSCAASGSTFTSYAMGWYRQAPGKERELVAAISKSGGSTYYADSVKGRFTISRDNAKKTVYFQMNSLKPEDTAVYYCAARYNVRSFSTSSFDYWGQGTQVTVSS,low polyreactivity
14,QVQLVESGGGLVQAGGSLRLSCAASGSTFTSYAMGWYRQAPGKERELVAAITRNGGTTYYADSVKGRFTISRDNAKNTVYLQMNSLKPEDTAVYYCNAPHYYYITSDRRFDYWGQGTQVTVSS,low polyreactivity
15,QVQLVESGGGLVQAGGSLRLSCAASGSTFTSYVMGWYRQAPGKERELVAAISSSGTRTYYADSVKGRFTISRDNAKNTVYLQMNSLKPEDTSVYYCAARGGAPYRIFKDDYWGQATQVTVSS,high polyreactivity
16,QVQLVESGGGLVQAGGSLRLSCAASGSTFTTYAMGWYRQAPGKERELVAAISIRGGRTYYADSVKGRFTISRDNAKNTVYLQMNSLKPEDTAVYYCAAETYYAVSTGYDFDYWGQGTQVTVSS,high polyreactivity
17,QVQLVESGGGLVQAGGSLRLSCAASGSTFTTYAMGWYRQAPGKERELVAAISKSGGSTYYADSVKGRFTISRDNAKNTVYLQMNSLKPEDTAVYYCATSFRSTARKYGYWGQGTQVTVSS,high polyreactivity
18,QVQLVESGGGLVQAGGSLRLSCAASGSTFTTYAMGWYRQAPGKERELVAAITSGGTTNYADSVKGRFTISRDNAKNTVYLQMNSLKPEDTAVYYCAARNNVEYLTIYKPYSFGSDSWGQGTQVTVSS,low polyreactivity
19,QVQLVESGGGLVQAGGSLRLSCAASGSTFTWNAMGWYRQAPGKERELGASISGRGGSTYYADSVKGRFTISRDNAKNTVYLQMNSLKPEDTAVYYCAARGVSYHYPSGYDYWGQGTQVTVSS,high polyreactivity
20,QVQLVESGGGLVQAGGSLRLSCAASGSTFTWYAMGWYRQAPGKERELVAAISGSGGRTFYADSVKGRFTISRDNAKNTVYLQMNSLKPEDTAVYYCNAVRVSIPYIYTMDYWGQGTQVTVSS,high polyreactivity
21,QVQLVESGGGLVQAGGSLRLSCAASGSTFTYNAMGWYRQAPGTERELVAAISDGDGRTYYADSVKGRFTISRDNAKNTVYLQMNSLKPEDTAVYYCAAVDYAADYPYRNTEVYYWGQGTQVTVSS,low polyreactivity
22,QVQLVESGGGLVQAGGSLRLSCAASGSTFTYYAMGWYRQAPGKERELVAAINWDGGRTYYADSVKGRFTISRDNAKNTVYLQMNSLKPEDTAVYYCNAVGRYRSGFDYWGQGTQVTVSS,high polyreactivity

row,Sequence,polyreactivity (PSR sort gate)
1,QVQLVESGGGLVQAGGSLRLSCAASGSTFTYYAMGWYRQAPGKERELVAAITGRGGRTYYADSVKGRFTISRDNAKNSVYLQMNSLKREDTAVYYCNTVGLNYGYQYSNGYWGQGSQVTVSS,high polyreactivity
2,QVQLVESGGGLVQAGGSLRLSCAASGSTFTYYAMGWYRQAPGKERELVAAITSSGSTNYADSVKGRFTISRDNAKNTVYLQMNSLKPEDTAVYYCNAVSKWAIYDYWGQGTQVTVSS,high polyreactivity
3,QVQLVESGGGLVQAGGSLRLSCAASGSTFTYYAMGWYRQAPGKERELVAAITWSGGSTYYADSVKGRFTISRDNAKNTVYLQMNSLKPEDTAVYYCNVYSIWGTYDYWGQGTQVTVSS,low polyreactivity
4,QVQLVESGGGLVQAGGSLRLSCAASGSTFTYYAMGWYRQAPGKERELVADIDFSGTSTYYADSVKGRFTISRDNAKNTVYLQMNSLKPEDTAVYYCATDDYNWFDYDYWGQGTQVTVSS,low polyreactivity
5,QVQLVESGGGLVQAGGSLRLSCAASGSTFTYYTMGWYRQAPGKERELVAAISRTTGSTYYADSVKGRFTISRDNAKNTVYLQMNSLKPEDTAVYYCAADYYTRYQYGYWGQGTQVTVSS,low polyreactivity
6,QVQLVESGGGLVQAGGSLRLSCAASGSTFVANGMGWYRQAPGKERELVAVISRNGGTTYYADSVKGRFTISRDNAKNTVYLQMNSLKPEDTAVYYCNAKLPVFHYFWMDYWGQGTQVTVSS,high polyreactivity
7,QVQLVESGGGLVQAGGSLRLSCAASGSTFVANTMGWYRQAPGKERELGAAITSDGGSTSYADSVKGRFSISRDNAKNTVYLQMNSLKPEDTAVYHCAAEYGGSSAKYGYWGQGTQVTVSS,low polyreactivity
8,QVQLVESGGGLVQAGGSLRLSCAASGSTFVANVMGWYRQAPGKERELVATINSTSGSTYYADSVKGRFTISRDNAKNTVYLQMNSLKPEDTAVYYCNATHEGFELDYWGQGTQVTVSS,low polyreactivity
9,QVQLVESGGGLVQAGGSLRLSCAASGSTFVAYAMGWYRQAPGKERELVAAISASGVRTYYADSVKGRFTISRDNAKNTVYLQMNSLKPEDTAVYYCAATVFRKYRYGYWGQGTQVTVSS,high polyreactivity
10,QVQLVESGGGLVQAGGSLRLSCAASGSTFVDNAMGWYRQAPGKERELVAAITNSGSTYYADSVKGRFTISRDNAKNTVYLQMNSHKPEDTAVYYCAARSRVYWARSGYWGQGTQVTVSS,low polyreactivity
11,QVQLVESGGGLVQAGGSLRLSCAASGSTFVDYDMGWYRQAPGKERELVAAITYSGARTYYADSVKGRFTISRDNAKNTVYLQMNSLKPEDTAVYYCNADQRTASDQLEFDYWGQGTQVTVSS,low polyreactivity
12,QVQLVESGGGLVQAGGSLRLSCAASGSTFVFYAMGLYRQAPGKERELVADITSGGRTSYADSVKGRFTISRDNAKNTVYLQMNSLKPEDTAVYYCAALTRWYAWYDYWGQGTQVTVSS,high polyreactivity
13,QVQLVESGGGLVQAGGSLRLSCAASGSTFVFYAMGWYRQAPGKERELVAINSGGSTYYADSVKGRFTISRDNAKKTVYLQMNSLKPVDTAVYYCAKDRLRVWRFDYWGQGTQVTVSS,low polyreactivity
14,QVQLVESGGGLVQAGGSLRLSCAASGSTFVFYTMGWYRQAPGKEREFVASISGSGGSTYYADSVKGRFTISRDNAKNTVYLQMNSLKPEVSAVYYCAAGYPYYYWTPYYYWGQGTQVTLSS,high polyreactivity
15,QVQLVESGGGLVQAGGSLRLSCAASGSTFVGNAMGWYRQAPGKERELVAAITSGGSTNYADSVKGRFTISRDNAKNTVYLQMNSLKPEDTAVYYCAKRVSGSPPTAGSLSDSWGQGTQVTVSS,high polyreactivity
16,QVQLVESGGGLVQAGGSLRLSCAASGSTFVGNVMGWYRQAPGKERELVATISRSGGRTYYADSVKGRFTISRDNAKNTVYLQMNSLKPVDTAVYYCAAGFVYTTASRWGGRTRYDYWGQGTQVTVSS,high polyreactivity
17,QVQLVESGGGLVQAGGSLRLSCAASGSTFVGYAMGWYRQAPGKERELVAAISGGDSTYYADSVKGRFTLSRDNAQNTVYLQKNSLNPEDTALYYCAVGWTFDRRGYGYWGQGTQVTVSS,low polyreactivity
18,QVQLVESGGGLVQAGGSLRLSCAASGSTFVGYAMGWYRQAPGKERELVAAITTDGGSTYYADSVKVRFTISRDNAKNTVYLQMNSLKPEDTAVYYCAADHRVYPRDDWDSPDEFGYWGQGTQVTVSS,low polyreactivity
19,QVQLVESGGGLVQAGGSLRLSCAASGSTFVGYAMGWYRQAPGKERELVADIDSIGGSTYYADSVKGRFTISRDNAKNTVYLQMNSLKPEDTAVYYCAARRFDTALVLYDYWGQGTQVTVSS,low polyreactivity
20,QVQLVESGGGLVQAGGSLRLSCAASGSTFVGYAMGWYRQAPGKERELVAGITASGTNTYYADSVKGRFTISRDNAKNTVYLQMNSLKPEDTAVYYCAAESNRRFEGEYWGQGTQVTVSS,high polyreactivity
21,QVQLVESGGGLVQAGGSLRLSCAASGSTFVGYAMGWYRQAPGKERELVAHISYSGGSTYYADSVKGRFTISCDNAKNTVYLQMNSLKPEDTAVYYCAAEWSRHYYYAPRYDYWGQGTQVTVSS,low polyreactivity
